Data taken from the DeepSol protein solubility set.

Assay: soluble on expression in E. coli; label from the status in PepcDB or PDB records

Sequence	soluble on expression in E. coli
MSLATPSFGNSSPQLTFTHVANFMNDAAADVSAVDAKQLAQIRQFLKANKTNLIESLNTIRQNVTSSGDHNKLRSTIANLLQINVDNDPFFAQSEDLSHAVEFFMSERSSRLHIVYSLLVNPDIDLETYSFIDNDRFNVVGKLISIISSVIQNYDIITASSLAHDYNNDQDMFTIVSLVQLKKFSDLKFILQILQILNLMILNTKVPVDIVNQWFLQYQNQFVEFCRNINSTDKSIDTSSLQLYKFQNFQDLSYLSETLISRISSLFTITTILILGLNTSIAQFDIQSPLYMDTETFDTVNSALENDVATNIVNEDPIFHPMIHYSWSFILYYRRALQSSESFDDSDITKFALFAESHDVLQKLNTLSEILSFDPVYTTVITVFLEFSLNFIPITASTSRVFAKIISKAPEQFIENFLTNDTFEKKLSIIKAKLPLLNESLIPLINLALIDTEFANFELKDICSFAVTKSSLNDLDYDLIADTITNSSSSSDIIVPDLIELKSDLLVAPPLENENSNCLLSIPKSTKGKILTIKQQQQQQQNGQQPPTTSNLIIFLYKFNGWSLVGRILQNLLHSYMEKGTQLDDLQHELMISIIKLVTNVVDPKTSIEKSSEILSYLSNSLDTSASTINGASIIQVIFEIFEISLQRKDYTSIVQCCEFMTMLTPNYLHLVSSYLNKSDLLDKYGKTGLSNMILGSVELSTGDYTFTIQLLKLTKVFIRESLSLKNIHISKRSKIDIINKLILHAIHIFESYYNWKYNNFLQKFEIAFHLTLIFYDVLHDVFTINPHQKDQLIISSSANKLLQLFLTPMDSIDLAPNTLTNILISPLNTTTKILGDKILGNLYSKVMNNSFKLCTLLISIRGSNRDLKPSNLEKLLFINSSKLVDVYTLPSYVHFKVQIIELLSYLVEAPWNDDYPFLLSFLGEAKSMAFLKEVLSDLSSPVQDWNLLRSLYIFFTTLLESKQDGLSILFLTGQFASNKKINDESSIDKKSSILTVLQKNSLLLDSTPEEVSCKLLETITYVLNTWTNSKIFIKDPKFVNSLLAKLKDSKKLEGHHHHHH	not soluble
MSQFTLYKNKDKSSAKTYPYFVDVQSDLLDNLNTRLVIPLTPIELLDKKAPSHLCPTIHIDEGDFIMLTQQMTSVPVKILSEPVNELSTFRNEIIAAIDFLITGI	soluble
MSYKAYPFFRDILINECIYFASKNKKLVRLNYKSEAYVGVWTEESVAVSFLTSRDIPFDKVVKMDVDRFATYELDELFDEQDHIIMNQTMEEEGHLLNVVAVTQEVMTELDKIRIKEFVQDVAKYDEVYGLTKKGSKQFILISENDSDEKKPHIMPVWSIKNRALKVRDEDFEECDLITIEGSVFGEWLDELRDDHKAVAIDLKTGVVGTIVSAQKLSNELTF	not soluble
MGSDKIHHHHHHMKGGTSKFKTHTETLYKKKKWSSVSEKRPQKCPSQCLESKQPQVSVLGKRRRASQTPAQETLESEWPQKAKRKKRRREPQTPAQETLESEWPQKAKKKKRRGEPQTPTQESLESEQPPVSLLGKRRRESQTPAQENSESEQPRKAKRRRKKRKGSQQPTSSLLKTPETFLKAKKTTSAHKKKKNSVLEVDMETGIILVDKENMENLLETSRKDVDIVYVDMSKGQRSAKVRETGELPAAKPQEHGCRELLGDVRSRKKQKHLQKVAPWDVVQGSQPESISLPPSEPLSSEDLEGKSTEAAVFCKKKSKKNVFRSQELEPIPDSLDDSETISERLDSTHHGGAVGAGEECESTKESHSIKKKSKKKKHKSVALATSSDSASVTDSKAKNALVDSSEGSGAVREEDVDHRPAEAEAQACSTEKHREAMQRLEPTHEEESNSESASNSAARHISEDRRESDDSDVDLGSAVRQLREFIPDIQERAATTIRRMYRDDLGRFKEFKAQGVAIRFGKFSAKENKQIEKNVQDFLSLTGIESADKLLYTDRYPEEKTLITNLKRKHAFRLHIGKGIARPWKLVYYRAKKIFDVNNYKGRYNEEDTKKLKAYHSLHGNDWKKIGAMVARSSLSVALKFSQIGGTRNQGAWSKAETQRLIKAVEDVILKKMSPQELRELDSKLQEDPEGRLSIVREKLYKGISWVEVEARVETRNWMQCKSKWTEILTKRMTHGGFVYRGVNALQAKITLIERLYELNVNDANEIDWEDLASAIGDVPPPFVQAKFYKLKAACVPFWQKKTFPEIIDYLYKNSLPLLKEKLDKKMKKKDGQIQTPAAPKQDFLFKDIFHCDDDSDEGSPEEPSASDVQ	not soluble
QQKRAFEYEIRFYTGNDPLDVWDRYISWTEQNYPQGGKESNMSTLLERAVEALQGEKRYYSDPRFLNLWLKLGRLCNEPLDMYSYLHNQGIGVSLAQFYISWAEEYEARENFRKADAIFQEGIQQKAEPLERLQSQHRQFQARVSRQTLLALEKEEEEEVFESS	soluble
